What was measured:
Test in all cases: pull-down; GST fusion bound to GST resin in 1× PBS pH 7.4, 0.1% Triton X-100, 2 h at 4 °C; incubated with purified tubulin-His 2 h at 4 °C; western blot with anti-His antibody
Settings in all cases: both partners purified
TUA3–His = target: T1, TUA3–His (Arabidopsis, UniProt Q56WH1 1-450)
T1 construct: α-tubulin TUA3 of Arabidopsis, gene cloned into pET28a; also called tubulin–His; source: E. coli (Rosetta strain), purified using Ni-NTA agarose

TUB6–His = target: T2, TUB6–His (Arabidopsis, UniProt P29514 1-449)
T2 construct: β-tubulin TUB6 of Arabidopsis, gene cloned into pET28a; also called tubulin–His; source: E. coli (Rosetta strain), purified using Ni-NTA agarose

TUB7–His = target: T3, TUB7–His (Arabidopsis, UniProt P29515 1-449)
T3 construct: β-tubulin TUB7 of Arabidopsis, gene cloned into pET28a; also called tubulin–His; source: E. coli (Rosetta strain), purified using Ni-NTA agarose

TUB3–His = target: T4, TUB3–His (Arabidopsis, UniProt Q9ASR0 1-450)
T4 construct: β-tubulin TUB3 of Arabidopsis, gene cloned into pET28a; also called tubulin–His; source: E. coli (Rosetta strain), purified using Ni-NTA agarose

TUA5–His = target: T5, TUA5–His (Arabidopsis, UniProt B9DHQ0 1-450)
T5 construct: α-tubulin TUA5 of Arabidopsis, gene cloned into pET28a; also called tubulin–His; source: E. coli (Rosetta strain), purified using Ni-NTA agarose

TUB8–His = target: T6, TUB8–His (Arabidopsis, UniProt P29516 1-449)
T6 construct: β-tubulin TUB8 of Arabidopsis, gene cloned into pET28a; also called tubulin–His; source: E. coli (Rosetta strain), purified using Ni-NTA agarose

TUA1–His = target: T7, TUA1–His (Arabidopsis, UniProt P11139 1-450)
T7 construct: α-tubulin TUA1 of Arabidopsis, gene cloned into pET28a; also called tubulin–His; source: E. coli (Rosetta strain), purified using Ni-NTA agarose

TUB4–His = target: T8, TUB4–His (Arabidopsis, UniProt P24636 1-444)
T8 construct: β-tubulin TUB4 of Arabidopsis, gene cloned into pET28a; also called tubulin–His; source: E. coli (Rosetta strain), purified using Ni-NTA agarose

Measured: binding result

T3 sequence (P29515 whole entry): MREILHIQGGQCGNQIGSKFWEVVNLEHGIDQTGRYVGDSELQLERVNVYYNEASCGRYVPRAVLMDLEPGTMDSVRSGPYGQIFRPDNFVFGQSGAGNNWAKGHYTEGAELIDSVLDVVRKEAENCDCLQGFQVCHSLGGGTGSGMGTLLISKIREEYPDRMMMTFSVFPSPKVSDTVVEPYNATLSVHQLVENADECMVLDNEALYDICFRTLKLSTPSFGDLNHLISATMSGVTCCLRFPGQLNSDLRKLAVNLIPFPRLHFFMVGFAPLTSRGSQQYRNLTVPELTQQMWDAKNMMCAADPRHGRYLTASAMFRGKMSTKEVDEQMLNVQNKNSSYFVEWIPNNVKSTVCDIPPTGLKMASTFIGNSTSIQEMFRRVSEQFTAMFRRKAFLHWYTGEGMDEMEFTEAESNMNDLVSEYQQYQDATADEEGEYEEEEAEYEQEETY
T7 sequence (P11139 whole entry): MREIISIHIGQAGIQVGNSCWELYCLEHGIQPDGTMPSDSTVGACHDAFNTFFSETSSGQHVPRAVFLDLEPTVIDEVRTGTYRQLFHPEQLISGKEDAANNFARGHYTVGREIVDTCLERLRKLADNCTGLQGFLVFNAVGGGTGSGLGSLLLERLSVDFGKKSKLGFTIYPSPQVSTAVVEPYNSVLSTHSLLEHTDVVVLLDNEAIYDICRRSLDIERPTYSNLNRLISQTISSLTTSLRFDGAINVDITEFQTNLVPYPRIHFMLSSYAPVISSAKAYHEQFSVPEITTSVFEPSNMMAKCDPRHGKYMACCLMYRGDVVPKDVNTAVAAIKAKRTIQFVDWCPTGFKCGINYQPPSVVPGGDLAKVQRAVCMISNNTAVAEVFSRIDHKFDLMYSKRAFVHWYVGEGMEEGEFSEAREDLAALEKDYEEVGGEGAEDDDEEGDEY
T8 sequence (P24636 whole entry): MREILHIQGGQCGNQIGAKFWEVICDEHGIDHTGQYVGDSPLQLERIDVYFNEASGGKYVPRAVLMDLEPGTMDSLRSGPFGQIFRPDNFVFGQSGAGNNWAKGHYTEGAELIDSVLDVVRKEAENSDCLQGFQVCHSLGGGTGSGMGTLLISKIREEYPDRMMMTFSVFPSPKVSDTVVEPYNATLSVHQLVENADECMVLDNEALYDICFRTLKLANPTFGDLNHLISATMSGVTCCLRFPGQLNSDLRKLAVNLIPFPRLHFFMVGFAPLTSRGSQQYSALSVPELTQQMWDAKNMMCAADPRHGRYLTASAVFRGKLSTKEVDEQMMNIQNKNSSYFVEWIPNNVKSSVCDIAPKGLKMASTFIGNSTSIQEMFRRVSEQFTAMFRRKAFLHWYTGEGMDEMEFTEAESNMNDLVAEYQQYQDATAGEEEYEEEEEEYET
T6 sequence (P29516 whole entry): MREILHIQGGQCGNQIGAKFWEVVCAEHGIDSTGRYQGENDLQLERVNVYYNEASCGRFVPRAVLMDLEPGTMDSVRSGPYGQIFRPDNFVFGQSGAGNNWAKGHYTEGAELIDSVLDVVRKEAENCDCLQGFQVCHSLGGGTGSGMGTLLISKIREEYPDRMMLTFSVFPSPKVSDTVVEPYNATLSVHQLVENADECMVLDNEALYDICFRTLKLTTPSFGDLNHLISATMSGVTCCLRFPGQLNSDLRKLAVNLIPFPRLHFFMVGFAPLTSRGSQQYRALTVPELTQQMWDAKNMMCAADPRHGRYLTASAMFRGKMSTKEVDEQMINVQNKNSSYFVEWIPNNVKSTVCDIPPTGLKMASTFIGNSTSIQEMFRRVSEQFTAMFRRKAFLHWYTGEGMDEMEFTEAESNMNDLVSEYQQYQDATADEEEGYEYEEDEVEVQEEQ
T1 sequence (Q56WH1 whole entry): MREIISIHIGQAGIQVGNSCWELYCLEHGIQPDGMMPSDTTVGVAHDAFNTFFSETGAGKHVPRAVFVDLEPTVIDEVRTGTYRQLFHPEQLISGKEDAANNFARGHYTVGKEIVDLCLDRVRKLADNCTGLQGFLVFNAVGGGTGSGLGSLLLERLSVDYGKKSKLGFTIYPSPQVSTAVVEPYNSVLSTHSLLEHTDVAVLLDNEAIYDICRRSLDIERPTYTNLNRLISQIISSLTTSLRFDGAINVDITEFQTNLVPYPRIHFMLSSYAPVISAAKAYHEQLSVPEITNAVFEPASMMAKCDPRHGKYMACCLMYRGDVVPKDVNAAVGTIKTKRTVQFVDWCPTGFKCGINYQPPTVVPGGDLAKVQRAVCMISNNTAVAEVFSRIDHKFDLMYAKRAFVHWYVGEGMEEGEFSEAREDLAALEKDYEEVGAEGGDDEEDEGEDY
T5 sequence (B9DHQ0 whole entry): as the sequence (Q56WH1 whole entry) above
T2 sequence (P29514 whole entry): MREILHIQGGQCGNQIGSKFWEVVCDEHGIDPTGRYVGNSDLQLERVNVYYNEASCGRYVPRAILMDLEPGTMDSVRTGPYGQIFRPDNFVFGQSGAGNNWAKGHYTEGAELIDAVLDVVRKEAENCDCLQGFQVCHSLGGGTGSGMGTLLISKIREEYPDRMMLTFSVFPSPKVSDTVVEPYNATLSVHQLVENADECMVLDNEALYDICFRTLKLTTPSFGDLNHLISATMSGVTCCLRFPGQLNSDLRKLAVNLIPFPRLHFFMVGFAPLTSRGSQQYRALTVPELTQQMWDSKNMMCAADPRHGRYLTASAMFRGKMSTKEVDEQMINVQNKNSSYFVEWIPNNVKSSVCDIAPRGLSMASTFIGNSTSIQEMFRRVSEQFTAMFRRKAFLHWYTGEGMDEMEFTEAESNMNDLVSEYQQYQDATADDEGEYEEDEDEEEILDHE
T4 sequence (Q9ASR0 whole entry): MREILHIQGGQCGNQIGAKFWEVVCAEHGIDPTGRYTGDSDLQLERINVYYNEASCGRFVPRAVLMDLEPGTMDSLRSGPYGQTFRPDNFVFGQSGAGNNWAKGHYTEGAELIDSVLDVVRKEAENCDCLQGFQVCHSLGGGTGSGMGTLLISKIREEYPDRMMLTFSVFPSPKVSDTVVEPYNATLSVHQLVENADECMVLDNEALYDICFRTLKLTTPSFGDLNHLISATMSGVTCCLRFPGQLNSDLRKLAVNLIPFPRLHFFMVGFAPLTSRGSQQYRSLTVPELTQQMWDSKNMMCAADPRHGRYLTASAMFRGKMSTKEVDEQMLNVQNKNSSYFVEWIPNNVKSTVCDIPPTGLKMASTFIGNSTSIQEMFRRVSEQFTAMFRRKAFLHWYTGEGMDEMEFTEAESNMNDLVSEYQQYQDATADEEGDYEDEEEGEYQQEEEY

B1: GST–BIN2 (BRASSINOSTEROID …2) (enzyme, Arabidopsis, UniProt Q39011 1-380, looked up)
chain: MADDKEMPAAVVDGHDQVTGHIISTTIGGKNGEPKQTISYMAERVVGTGSFGIVFQAKCLETGETVAIKKVLQDRRYKNRELQLMRVMDHPNVVCLKHCFFSTTSKDELFLNLVMEYVPESLYRVLKHYSSANQRMPLVYVKLYMYQIFRGLAYIHNVAGVCHRDLKPQNLLVDPLTHQVKICDFGSAKQLVKGEANISYICSRFYRAPELIFGATEYTTSIDIWSAGCVLAELLLGQPLFPGENAVDQLVEIIKVLGTPTREEIRCMNPHYTDFRFPQIKAHPWHKIFHKRMPPEAIDFASRLLQYSPSLRCTALEACAHPFFDELREPNARLPNGRPFPPLFNFKQEVAGSSPELVNKLIPDHIKRQLGLSFLNQSGT
notes: BRASSINOSTEROID …2 (BIN2), GSK3-like kinase of Arabidopsis, 380 aa; also called BIN2–GST; source: E. coli (Rosetta strain), purified using glutathione resin
binds: all assays above

— publication PMC6018924, “Brassinosteroids regulate pavement cell growth by mediating BIN2-induced microtubule stabilization” (Journal of Experimental Botany, 2018)
